In patent US20090226456A1 (published 2009):

How the values were obtained:
Experiment in all cases: flow cytometry on transiently transfected cells
[1] = target: T1, LTβR on transiently transfected cells (UniProt P36941 31-435, limits assumed)
T1 construct: whole, on cells
Protocol: (§1) One million cells, in 0.1 ml of FACS buffer (PBS, 0.1% BSA, 0.1% NaN₃), were incubated with 0.1-1 microgram of protein or antibody at RT for 15 min. The cells were washed with 3 ml of FACS buffer, reacted with biotinylated primary antibody, and stained with PE-conjugated secondary antibody at RT for 15 min. Cells were then washed again, resuspended in 0.5 microgram/ml of propidium iodide, and live cells were gated and analyzed on a FACScan using the CellQuest software (BD Biosciences).

[2] = target: T2, CD30 on transiently transfected cells (UniProt P28908 19-595, limits assumed)
T2 construct: whole, on cells
T2 sequence (looked up): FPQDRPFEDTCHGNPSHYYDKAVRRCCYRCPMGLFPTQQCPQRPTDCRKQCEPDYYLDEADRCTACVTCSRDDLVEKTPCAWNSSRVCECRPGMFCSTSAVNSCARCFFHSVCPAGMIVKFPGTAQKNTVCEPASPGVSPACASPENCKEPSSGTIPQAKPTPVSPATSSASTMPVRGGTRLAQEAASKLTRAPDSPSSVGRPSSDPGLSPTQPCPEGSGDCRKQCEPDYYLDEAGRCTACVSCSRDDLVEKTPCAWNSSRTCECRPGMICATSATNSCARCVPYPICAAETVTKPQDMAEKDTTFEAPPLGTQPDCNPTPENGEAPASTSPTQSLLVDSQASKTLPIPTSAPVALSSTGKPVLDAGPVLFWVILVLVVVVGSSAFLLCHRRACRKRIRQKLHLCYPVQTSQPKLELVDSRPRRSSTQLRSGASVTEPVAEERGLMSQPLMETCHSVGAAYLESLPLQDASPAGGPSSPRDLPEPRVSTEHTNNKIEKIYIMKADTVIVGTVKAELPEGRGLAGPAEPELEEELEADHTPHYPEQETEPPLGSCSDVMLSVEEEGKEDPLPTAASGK
Protocol: as §1

[3] = target: T3, DR6 on transiently transfected cells (UniProt O75509 42-655, limits assumed)
T3 construct: whole, on cells
T3 sequence (looked up): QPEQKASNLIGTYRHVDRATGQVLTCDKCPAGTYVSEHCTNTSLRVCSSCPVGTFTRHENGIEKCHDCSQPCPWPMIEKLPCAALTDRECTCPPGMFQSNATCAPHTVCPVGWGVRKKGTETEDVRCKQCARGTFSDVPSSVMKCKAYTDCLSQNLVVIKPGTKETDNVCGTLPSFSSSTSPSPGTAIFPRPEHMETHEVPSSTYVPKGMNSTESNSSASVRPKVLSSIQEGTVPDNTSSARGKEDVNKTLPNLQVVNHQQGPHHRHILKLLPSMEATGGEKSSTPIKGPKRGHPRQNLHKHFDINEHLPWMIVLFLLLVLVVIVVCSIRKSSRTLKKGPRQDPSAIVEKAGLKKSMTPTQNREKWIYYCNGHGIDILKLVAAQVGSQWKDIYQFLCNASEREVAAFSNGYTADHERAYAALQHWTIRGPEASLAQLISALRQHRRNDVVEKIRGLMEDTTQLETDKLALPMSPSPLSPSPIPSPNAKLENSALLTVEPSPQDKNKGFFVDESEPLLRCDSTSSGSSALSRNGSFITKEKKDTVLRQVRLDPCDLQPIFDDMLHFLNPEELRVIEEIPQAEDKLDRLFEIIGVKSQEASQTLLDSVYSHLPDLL
Protocol: as §1

[4] = target: T4, DcR2 on transiently transfected cells (UniProt Q9UBN6 56-386, limits assumed)
T4 construct: whole, on cells
T4 sequence (looked up): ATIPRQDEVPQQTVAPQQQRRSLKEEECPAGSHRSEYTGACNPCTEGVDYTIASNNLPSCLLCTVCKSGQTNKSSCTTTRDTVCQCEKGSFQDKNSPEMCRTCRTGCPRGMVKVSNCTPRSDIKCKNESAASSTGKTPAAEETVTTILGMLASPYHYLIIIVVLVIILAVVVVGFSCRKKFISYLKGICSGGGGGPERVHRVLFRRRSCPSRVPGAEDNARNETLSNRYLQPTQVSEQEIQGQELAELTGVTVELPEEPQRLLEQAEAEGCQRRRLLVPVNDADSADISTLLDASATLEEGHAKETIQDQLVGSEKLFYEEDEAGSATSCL
Protocol: as §1

[5] = target: T5, RANK on transiently transfected cells (UniProt Q9Y6Q6 30-616, limits assumed)
T5 construct: whole, on cells
T5 sequence (looked up): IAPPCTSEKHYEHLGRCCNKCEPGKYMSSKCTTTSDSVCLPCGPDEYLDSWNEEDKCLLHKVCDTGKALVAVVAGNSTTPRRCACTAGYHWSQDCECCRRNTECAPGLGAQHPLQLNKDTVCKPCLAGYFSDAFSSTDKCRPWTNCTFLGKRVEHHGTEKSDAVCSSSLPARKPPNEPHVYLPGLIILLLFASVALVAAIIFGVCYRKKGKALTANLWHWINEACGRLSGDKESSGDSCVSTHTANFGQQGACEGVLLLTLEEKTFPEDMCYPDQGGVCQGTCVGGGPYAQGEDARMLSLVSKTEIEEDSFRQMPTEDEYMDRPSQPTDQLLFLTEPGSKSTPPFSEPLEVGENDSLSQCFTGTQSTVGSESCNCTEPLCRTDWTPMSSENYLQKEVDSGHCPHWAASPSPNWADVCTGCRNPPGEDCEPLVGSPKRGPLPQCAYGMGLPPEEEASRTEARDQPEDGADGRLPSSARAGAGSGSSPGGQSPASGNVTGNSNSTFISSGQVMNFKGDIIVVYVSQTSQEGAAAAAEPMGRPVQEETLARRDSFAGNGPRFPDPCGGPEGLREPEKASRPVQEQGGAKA
Protocol: as §1

Measured: binding result

T1 sequence (P36941 31-435 limits assumed): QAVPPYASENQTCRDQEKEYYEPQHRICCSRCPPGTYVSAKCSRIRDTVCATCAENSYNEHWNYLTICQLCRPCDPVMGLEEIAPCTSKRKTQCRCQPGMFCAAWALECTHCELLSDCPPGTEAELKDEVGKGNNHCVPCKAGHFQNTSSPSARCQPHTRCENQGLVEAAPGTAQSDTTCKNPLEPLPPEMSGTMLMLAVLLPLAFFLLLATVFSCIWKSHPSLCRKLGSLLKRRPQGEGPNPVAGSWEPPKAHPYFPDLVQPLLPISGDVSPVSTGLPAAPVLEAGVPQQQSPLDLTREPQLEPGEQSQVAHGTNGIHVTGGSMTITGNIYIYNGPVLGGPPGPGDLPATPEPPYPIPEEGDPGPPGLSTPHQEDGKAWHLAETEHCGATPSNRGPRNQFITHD

B1: FLAG-tagged soluble TNF-gamma-beta (aa 72-251) (ligand, human)
chain: DYKDDDDKLKGQEFAPSHQQVYAPLRADGDKPRAHLTVVRQTPTQHFKNQFPALHWEHELGLAFTKNRMNYTNKFLLIPESGDYFIYSQVTFRGMTSECSEIRQAGRPNKPDSITVVITKVTDSYPEPTQLLMGTKSVCEVGSNWFQPIYLGAMFSLQEGDKLMVNVSDISLVDYTKEDKTFFGAFLL
notes: also called FLAG-TNF-gamma-beta; FLAG-TL1β
no binding: all assays above
